Measurements from US20250042956A1.
Values belong to the binder of their own block, whether it stands above or below them.

Legend:
[1] = biological target: T1, AT5G67580.1 TRB2 (Arabidopsis thaliana) (UniProt Q9FJW5); assay: IP-MS rep 1
T1 sequence: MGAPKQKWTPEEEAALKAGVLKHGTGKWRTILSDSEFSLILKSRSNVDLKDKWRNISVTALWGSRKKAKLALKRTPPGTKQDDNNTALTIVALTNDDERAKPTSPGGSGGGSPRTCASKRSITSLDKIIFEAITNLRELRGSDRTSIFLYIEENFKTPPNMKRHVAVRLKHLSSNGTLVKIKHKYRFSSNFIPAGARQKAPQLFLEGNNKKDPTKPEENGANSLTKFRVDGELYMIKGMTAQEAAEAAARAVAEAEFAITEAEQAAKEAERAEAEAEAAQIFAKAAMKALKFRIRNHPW

[2] = biological target: T1, AT5G67580.1 TRB2 (Arabidopsis thaliana); assay: X-link IP-MS
[3] = biological target: T1, AT5G67580.1 TRB2 (Arabidopsis thaliana); assay: IP-MS rep 2
[4] = biological target: AT4G20400.1 JMJ14 (Arabidopsis thaliana), Q8GUI6; assay: X-link IP-MS; conditions: remark: other sources report otherwise
Sequence of AT4G20400.1 JMJ14 (Arabidopsis thaliana), Q8GUI6 (Q8GUI6 whole entry): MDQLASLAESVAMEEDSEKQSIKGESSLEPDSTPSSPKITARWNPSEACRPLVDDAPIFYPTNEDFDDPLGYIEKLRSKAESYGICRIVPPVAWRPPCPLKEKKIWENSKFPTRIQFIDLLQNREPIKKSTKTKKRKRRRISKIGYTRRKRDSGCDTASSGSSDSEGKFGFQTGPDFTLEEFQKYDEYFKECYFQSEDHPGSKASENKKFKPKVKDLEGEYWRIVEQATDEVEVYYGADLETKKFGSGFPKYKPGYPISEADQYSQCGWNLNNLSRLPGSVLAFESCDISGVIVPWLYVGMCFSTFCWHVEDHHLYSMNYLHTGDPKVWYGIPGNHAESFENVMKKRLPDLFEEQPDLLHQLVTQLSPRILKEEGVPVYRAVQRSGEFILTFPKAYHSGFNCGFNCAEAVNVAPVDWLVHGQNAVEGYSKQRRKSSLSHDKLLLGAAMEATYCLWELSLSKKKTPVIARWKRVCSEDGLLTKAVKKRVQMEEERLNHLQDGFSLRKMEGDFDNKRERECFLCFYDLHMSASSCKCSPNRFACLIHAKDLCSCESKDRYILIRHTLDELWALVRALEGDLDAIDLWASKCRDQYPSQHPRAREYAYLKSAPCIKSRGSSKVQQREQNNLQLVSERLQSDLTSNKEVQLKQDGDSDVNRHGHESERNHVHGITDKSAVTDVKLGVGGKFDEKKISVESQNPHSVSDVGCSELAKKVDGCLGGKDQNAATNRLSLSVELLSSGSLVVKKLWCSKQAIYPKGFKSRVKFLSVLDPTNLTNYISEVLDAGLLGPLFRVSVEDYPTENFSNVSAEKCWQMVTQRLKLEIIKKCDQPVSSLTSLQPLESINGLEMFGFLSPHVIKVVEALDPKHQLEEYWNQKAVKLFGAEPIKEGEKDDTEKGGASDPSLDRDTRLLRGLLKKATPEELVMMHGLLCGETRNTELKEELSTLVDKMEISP

[5] = biological target: AT4G20400.1 JMJ14 (Arabidopsis thaliana), Q8GUI6; assay: IP-MS rep 2; conditions: remark: other sources report otherwise
[6] = biological target: AT4G20400.1 JMJ14 (Arabidopsis thaliana), Q8GUI6; assay: IP-MS rep 1; conditions: remark: other sources report otherwise
[7] = biological target: T2, AT5G17690.1 LHP1 (Arabidopsis thaliana), Q946J8; assay: X-link IP-MS; conditions: remark: other sources report otherwise
T2 chain: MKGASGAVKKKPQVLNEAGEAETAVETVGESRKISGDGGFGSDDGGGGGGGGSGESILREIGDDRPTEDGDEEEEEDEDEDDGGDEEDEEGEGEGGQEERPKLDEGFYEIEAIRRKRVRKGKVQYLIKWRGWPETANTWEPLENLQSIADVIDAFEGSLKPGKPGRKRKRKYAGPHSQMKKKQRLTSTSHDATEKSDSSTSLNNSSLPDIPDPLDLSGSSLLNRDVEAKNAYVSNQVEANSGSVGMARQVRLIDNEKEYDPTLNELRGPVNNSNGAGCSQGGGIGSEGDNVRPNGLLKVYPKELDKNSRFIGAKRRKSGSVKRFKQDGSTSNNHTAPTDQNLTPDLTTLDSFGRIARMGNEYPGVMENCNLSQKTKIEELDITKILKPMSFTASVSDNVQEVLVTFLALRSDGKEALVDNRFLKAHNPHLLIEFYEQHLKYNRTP

[8] = biological target: T2, AT5G17690.1 LHP1 (Arabidopsis …); assay: IP-MS rep 2; conditions: remark: other sources report otherwise
[9] = biological target: T2, AT5G17690.1 LHP1 (Arabidopsis …); assay: IP-MS rep 1; conditions: remark: other sources report otherwise
[10] = biological target: T3, AT4G02020.1 SWN (Arabidopsis thaliana) (UniProt Q9ZSM8); assay: IP-MS rep 1
T3 sequence (looked up): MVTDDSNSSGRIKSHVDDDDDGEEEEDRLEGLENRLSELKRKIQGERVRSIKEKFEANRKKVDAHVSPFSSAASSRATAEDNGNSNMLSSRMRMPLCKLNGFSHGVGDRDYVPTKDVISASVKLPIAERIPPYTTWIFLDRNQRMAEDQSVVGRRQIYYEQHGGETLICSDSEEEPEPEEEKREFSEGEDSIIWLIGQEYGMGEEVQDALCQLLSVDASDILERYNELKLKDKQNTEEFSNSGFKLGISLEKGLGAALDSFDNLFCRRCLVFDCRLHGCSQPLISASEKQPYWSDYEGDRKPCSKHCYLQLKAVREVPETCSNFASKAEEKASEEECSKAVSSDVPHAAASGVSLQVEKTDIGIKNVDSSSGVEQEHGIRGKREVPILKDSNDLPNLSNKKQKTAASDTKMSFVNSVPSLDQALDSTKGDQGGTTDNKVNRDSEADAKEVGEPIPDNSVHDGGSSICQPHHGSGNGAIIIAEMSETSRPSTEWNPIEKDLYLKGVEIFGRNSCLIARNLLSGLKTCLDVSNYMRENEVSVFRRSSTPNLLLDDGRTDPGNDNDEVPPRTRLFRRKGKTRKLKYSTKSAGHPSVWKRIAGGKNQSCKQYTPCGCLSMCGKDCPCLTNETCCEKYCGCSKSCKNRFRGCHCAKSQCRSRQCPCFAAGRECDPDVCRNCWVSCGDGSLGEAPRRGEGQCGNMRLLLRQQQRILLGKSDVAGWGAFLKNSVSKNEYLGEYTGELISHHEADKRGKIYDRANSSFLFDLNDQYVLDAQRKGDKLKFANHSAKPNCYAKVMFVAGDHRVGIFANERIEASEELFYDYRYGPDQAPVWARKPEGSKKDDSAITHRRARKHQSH

[11] = biological target: T3, AT4G02020.1 SWN (Arabidopsis thaliana); assay: X-link IP-MS
[12] = biological target: T3, AT4G02020.1 SWN (Arabidopsis thaliana); assay: IP-MS rep 2
[13] = biological target: T4, AT5G17690.1 LHP1 (Arabidopsis thaliana) (UniProt Q946J8); assay: IP-MS rep 1
T4 sequence: T2 chain

[14] = biological target: T4, AT5G17690.1 LHP1 (Arabidopsis thaliana); assay: IP-MS rep 2
[15] = biological target: T5, AT3G49850.1 TRB3 (Arabidopsis thaliana) (UniProt Q9M2X3); assay: IP-MS rep 1
T5 sequence: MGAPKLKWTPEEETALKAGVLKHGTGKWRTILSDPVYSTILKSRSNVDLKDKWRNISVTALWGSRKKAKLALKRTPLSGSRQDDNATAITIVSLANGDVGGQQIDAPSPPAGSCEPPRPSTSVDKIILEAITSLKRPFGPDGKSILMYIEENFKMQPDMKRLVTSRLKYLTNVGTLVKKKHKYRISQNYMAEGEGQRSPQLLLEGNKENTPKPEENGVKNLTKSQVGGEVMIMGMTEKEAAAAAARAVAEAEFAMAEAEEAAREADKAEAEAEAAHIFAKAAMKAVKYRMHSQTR

[16] = biological target: T5, AT3G49850.1 TRB3 (Arabidopsis thaliana); assay: X-link IP-MS
[17] = biological target: T5, AT3G49850.1 TRB3 (Arabidopsis thaliana); assay: IP-MS rep 2

B1: FLAG-TRB3 (protein, not shown: small tags and cut ends)
chain: T5 sequence
IP-MS count [1]: 12
IP-MS count [2]: 11
IP-MS count [3]: 11

B3: FLAG-TRB1, Q8VWK4 1-300 (protein, not shown: small tags and cut ends)
chain: MGAPKQKWTQEEESALKSGVIKHGPGKWRTILKDPEFSGVLYLRSNVDLKDKWRNMSVMANGWGSREKSRLAVKRTFSLPKQEENSLALTNSLQSDEENVDATSGLQVSSNPPPRRPNVRLDSLIMEAIATLKEPGGCNKTTIGAYIEDQYHAPPDFKRLLSTKLKYLTSCGKLVKVKRKYRIPNSTPLSSHRRKGLGVFGGKQRTSSLPSPKTDIDEVNFQTRSQIDTEIARMKSMNVHEAAAVAAQAVAEAEAAMAEAEEAAKEAEAAEAEAEAAQAFAEEASKTLKGRNICKMMIRA
IP-MS count [7]: 0
IP-MS count [4]: 77
IP-MS count [8]: 1
IP-MS count [5]: 35
IP-MS count [9]: 0
IP-MS count [6]: 34

B4: FLAG-TRB1 (protein, not shown: small tags and cut ends)
chain: B3 chain
IP-MS count [10]: 1
IP-MS count [11]: 2
IP-MS count [12]: 0

B6: FLAG-TRB2 (protein, not shown: small tags and cut ends)
chain: T1 sequence
IP-MS count [15]: 0
IP-MS count [16]: 4
IP-MS count [17]: 0

Next, values leading:

IP-MS count [4]: 72
IP-MS count [5]: 12
IP-MS count [6]: 13
B2: FLAG-TRB3, Q9M2X3 1-295 (protein, not shown: small tags and cut ends)
chain: T5 sequence

IP-MS count [13]: 2
IP-MS count [14]: 1
B5: TRBIP2 (bait of the TRBIP2 IP-MS) (protein, not shown: small tags and cut ends)
chain: MATNACLESDSLLPPRKRLLAGFKNQNSRISNESPSPPFASSSSSTTTSNGSSASAVVHTHHLDHLLNDQTRSPEELAQASKATAALAVKVAKAARATANEKAIIASKAVAAAKNALELFASFPAAETVSCKEPRLIRAINNSPRVLTDCSGHRNKKQKTLTSTMNDGNDVAGVVDSDDGTRVNGKLLLCDNTLKEKTEEESSSLGKRRGRVKLPLSMCAYKDQENGITLEENNLSVSKSEGYNGGVAQVIERPSWKCQDLKSPECVKQNKVVRS
